Measured values from patent US20220402981A1.
pEC50, pKd: −log10 of the molar value.

Tests used:
[1] = biological target: DDB1ΔB-DCAF15biotin (human) (UniProt Q16531); test: TR-FRET dimerization assay; the compound E7820 is titrated (EC50 is of the compound) to DDB1ΔB-DCAF15 in the presence of BodipyFL-RBM23RRM2-WT, FIG. 5E
[2] = biological target: DDB1ΔB-DCAF15biotin (human) (UniProt Q16531); test: TR-FRET, BodipyFL-RBM39RRM2 titrated to DDB1ΔB-DCAF15biotin in the presence of E7820 at 50 µM; apparent KD
[3] = biological target: DDB1ΔB-DCAF15biotin-DDA1 (human) (UniProt Q16531); test: TR-FRET with E7820; DDB1-DCAF15-DDA1 against DDB1-DCAF15
[4] = biological target: DDB1ΔB-DCAF15biotin (human) (UniProt Q16531); test: TR-FRET, BodipyFL-RBM39RRM2 titrated to DDB1ΔB-DCAF15biotin in the presence of tasisulam at 50 µM; apparent KD
[5] = biological target: DDB1ΔB-DCAF15biotin (human) (UniProt Q16531); test: TR-FRET, BodipyFL-RBM39RRM2 titrated to DDB1ΔB-DCAF15biotin in the presence of E7820 (50 µM), FIG. 3C; apparent KD
[6] = biological target: DDB1ΔB-DCAF15biotin-DDA1 (human) (UniProt Q16531); test: TR-FRET, BodipyFL-RBM39RRM2 titrated to DDB1ΔB-DCAF15biotin-DDA1 in the presence of E7820 (50 µM), FIG. 3C; apparent KD
[7] = biological target: DDB1ΔB-DCAF15biotin (human) (UniProt Q16531); test: TR-FRET, BodipyFL-RBM39RRM2 titrated to DDB1ΔB-DCAF15biotin in the presence of indisulam at 50 µM; apparent KD
[8] = biological target: DDB1ΔB-DCAF15biotin-DDA1 (human) (UniProt Q16531); test: TR-FRET dimerization assay; the compound E7820 is titrated (EC50 is of the compound) to DDB1ΔB-DCAF15biotin-DDA1 and BodipyFL-RBM39RRM2, FIG. 3D
[9] = biological target: DDB1ΔB-DCAF15biotin (human) (UniProt Q16531); test: TR-FRET dimerization assay; the compound indisulam is titrated (EC50 is of the compound), both proteins at 200 nM, FIG. 7F
[10] = biological target: DDB1ΔB-DCAF15biotin (human) (UniProt Q16531); test: TR-FRET dimerization assay; the compound E7820 is titrated (EC50 is of the compound), both proteins at 200 nM, FIG. 7F
[11] = biological target: DDB1ΔB-DCAF15biotin (human) (UniProt Q16531); test: TR-FRET dimerization assay; the compound tasisulam is titrated (EC50 is of the compound), both proteins at 200 nM, FIG. 7F

Chain of BodipyFL-RBM39RRM2 (Q14498 245-332): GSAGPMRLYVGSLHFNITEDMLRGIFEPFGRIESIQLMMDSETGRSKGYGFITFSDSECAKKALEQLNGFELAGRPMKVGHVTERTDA

“BodipyFL-RBM23RRM2-WT (from UniProt Q86U06 263-341)” was tested, and the pEC50 [1] was 6.00.

“BodipyFL-RBM39RRM2 (from UniProt Q14498 245-332)” gave a pKd [2] of 5.70, a fold strengthening of apparent affinity against the complex without DDA1 [3] of 3 fold and a pKd [4] of 5.46. It also gave a pKd [5] of 5.72, a pKd [6] of 6.21 and a pKd [7] of 5.68. For the same substance, the pEC50 [8] was 6.48, the pEC50 [9] was 5.49 and the pEC50 [10] was 6.13. The pEC50 [11] was < 5.00.
